Numbering of substitutions follows the chain as printed. In names and notes the source's numbering stands.
T1: PUF4 RNA-binding domain (Saccharomyces cerevisiae, UniProt P25339 537-888)
T1 sequence: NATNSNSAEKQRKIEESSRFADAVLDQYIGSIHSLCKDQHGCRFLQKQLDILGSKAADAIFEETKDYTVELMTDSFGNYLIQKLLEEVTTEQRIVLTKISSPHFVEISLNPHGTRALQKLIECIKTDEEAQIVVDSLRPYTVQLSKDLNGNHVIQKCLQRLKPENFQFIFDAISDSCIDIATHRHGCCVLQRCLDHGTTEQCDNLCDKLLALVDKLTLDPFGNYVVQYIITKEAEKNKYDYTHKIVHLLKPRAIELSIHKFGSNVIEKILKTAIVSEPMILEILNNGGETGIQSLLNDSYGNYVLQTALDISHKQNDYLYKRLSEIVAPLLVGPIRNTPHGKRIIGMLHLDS

B1: Ic_S4_P4E.1_K4.1_C4.1_H4.1_A4.1_[T5C]_[A6G]_[T7C]_F4.1_[T8A]_[A9G]_T4.1 (ssRNA)
RNA: UUUGACAACUGAUCGUUCUUUCUUGUACGCAGUUCUUUCUCGAUCAGUUGUCUUU
B2: Ic_S4_P4E.1_K4.1_C4.1_H4.1_A4.1_[T5C]_[A6T]_[T7C]_F4.1_[T8G]_[A9T]_T4.1 (ssRNA)
RNA: B1 RNA with G29U, A31G, G32U
B3: Ic_S4_P4E.1_K4.1_C4.1_H4.1_A4.1_[T5C]_[A6T]_[T7C]_F4.1_[A9C]_T4.1 (ssRNA)
RNA: B1 RNA with G29U, A31U, G32C
B4: Ic_S4_P4E.1_K4.1_C4.1_H4.1_A4.1_[T5C]_[A6G]_[T7A]_F4.1_[T8C]_T4.1 (ssRNA)
RNA: B1 RNA with C30A, A31C, G32A
B5: Ic_S4_P4E.1_K4.1_C4.1_H4.1_A4.1_[T5C]_[A6C]_[T7C]_F4.1_[T8G]_[A9G]_T4.1 (ssRNA)
RNA: B1 RNA with G29C, A31G
B6: Ic_S4_P4E.1_K4.1_C4.1_H4.1_A4.1_[T5C]_[A6C]_[T7A]_F4.1_[A9C]_T4.1 (ssRNA)
RNA: B1 RNA with G29C, C30A, A31U, G32C
B7: Ic_S4_P4E.1_K4.1_C4.1_H4.1_A4.1_[T5C]_[A6T]_[T7C]_F4.1_[T8A]_T4.1 (ssRNA)
RNA: B1 RNA with G29U, G32A
B8: Ic_S4_P4E.1_K4.1_C4.1_H4.1_A4.1_[T5C]_[A6C]_[T7G]_F4.1_[T8C]_[A9T]_T4.1 (ssRNA)
RNA: B1 RNA with G29C, C30G, A31C, G32U
B9: Ic_S4_P4E.1_K4.1_C4.1_H4.1_A4.1_[T5C]_[A6C]_F4.1_[T8A]_[A9C]_T4.1 (ssRNA)
RNA: B1 RNA with G29C, C30U, G32C
B10: Ic_S4_P4E.1_K4.1_C4.1_H4.1_A4.1_[T5C]_[A6G]_[T7C]_F4.1_[T8A]_T4.1 (ssRNA)
RNA: B1 RNA with G32A
B11: Ic_S4_P4E.1_K4.1_C4.1_H4.1_A4.1_[T5C]_[A6T]_[T7G]_F4.1_T4.1 (ssRNA)
RNA: B1 RNA with G29U, C30G, A31U, G32A
B12: Ic_S4_P4E.1_K4.1_C4.1_H4.1_A4.1_[T5C]_[A6C]_[T7C]_F4.1_[T8A]_[A9C]_T4.1 (ssRNA)
RNA: B1 RNA with G29C, G32C
B13: Ic_S4_P4E.1_K4.1_C4.1_H4.1_A4.1_[T5C]_[A6C]_[T7G]_F4.1_[A9T]_T4.1 (ssRNA)
RNA: B1 RNA with G29C, C30G, A31U, G32U
B14: Ic_S4_P4E.1_K4.1_C4.1_H4.1_A4.1_[T5C]_[A6C]_F4.1_[T8A]_[A9T]_T4.1 (ssRNA)
RNA: B1 RNA with G29C, C30U, G32U
B15: Ic_S4_P4E.1_K4.1_C4.1_H4.1_A4.1_[T5C]_[A6T]_[T7C]_F4.1_[T8A]_[A9G]_T4.1 (ssRNA)
RNA: B1 RNA with G29U
B16: Ic_S4_P4E.1_K4.1_C4.1_H4.1_A4.1_[T5C]_[A6T]_F4.1_[T8C]_[A9C]_T4.1 (ssRNA)
RNA: B1 RNA with G29U, C30U, A31C, G32C
B17: Ic_S4_P4E.1_K4.1_C4.1_H4.1_A4.1_[T5C]_[A6C]_[T7A]_F4.1_T4.1 (ssRNA)
RNA: B1 RNA with G29C, C30A, A31U, G32A
B18: Ic_S4_P4E.1_K4.1_C4.1_H4.1_A4.1_[T5C]_[A6G]_F4.1_[T8A]_[A9T]_T4.1 (ssRNA)
RNA: B1 RNA with C30U, G32U
B19: Ic_S4_P4E.1_K4.1_C4.1_H4.1_A4.1_[T5C]_[A6C]_[T7G]_F4.1_[T8C]_[A9C]_T4.1 (ssRNA)
RNA: B1 RNA with G29C, C30G, A31C, G32C
B20: Ic_S4_P4E.1_K4.1_C4.1_H4.1_A4.1_[T5C]_[A6G]_F4.1_[A9T]_T4.1 (ssRNA)
RNA: B1 RNA with C30U, A31U, G32U
B21: Ic_S4_P4E.1_K4.1_C4.1_H4.1_A4.1_[T5C]_[A6T]_[T7C]_F4.1_[T8C]_[A9C]_T4.1 (ssRNA)
RNA: B1 RNA with G29U, A31C, G32C
B22: Ic_S4_P4E.1_K4.1_C4.1_H4.1_A4.1_[T5C]_[A6T]_[T7A]_F4.1_[T8C]_T4.1 (ssRNA)
RNA: B1 RNA with G29U, C30A, A31C, G32A
B23: Ic_S4_P4E.1_K4.1_C4.1_H4.1_A4.1_[T5C]_[A6C]_F4.1_[T8C]_[A9C]_T4.1 (ssRNA)
RNA: B1 RNA with G29C, C30U, A31C, G32C
B24: Ic_S4_P4E.1_K4.1_C4.1_H4.1_A4.1_[T5C]_[A6C]_[T7A]_F4.1_[T8C]_T4.1 (ssRNA)
RNA: B1 RNA with G29C, C30A, A31C, G32A
B25: Ic_S4_P4E.1_K4.1_C4.1_H4.1_A4.1_[T5C]_[A6T]_[T7A]_F4.1_[T8C]_[A9T]_T4.1 (ssRNA)
RNA: B1 RNA with G29U, C30A, A31C, G32U
B26: Ic_S4_P4E.1_K4.1_C4.1_H4.1_A4.1_[T5C]_[A6T]_[T7C]_F4.1_[T8C]_[A9G]_T4.1 (ssRNA)
RNA: B1 RNA with G29U, A31C
B27: Ic_S4_P4E.1_K4.1_C4.1_H4.1_A4.1_[T5C]_[A6C]_F4.1_T4.1 (ssRNA)
RNA: B1 RNA with G29C, C30U, A31U, G32A

The binders below were run against T1, PUF4 RNA-binding domain (assay: Mg; RNA-MaP; 20 mM Na-HEPES pH 7.4, 30 mM KOAc, 0.75 mM MgCl2, 0.1% Tween-20, 5% glycerol, 0.1 mg/mL BSA, 2 mM DTT; 25 C; 0.0125-409.6 nM protein). Conditions: tags: N-His6-TEV cleaved; C-SNAP kept, Cy3B-labelled; label: tethered on chip by stalled RNA polymerase.

Compared with UCUCUUUGUAAAUCAUCUCUU (ssRNA) [Ib_S1_P4E.1_K4.1_C4.1_H4.1_A4.1_[T5A]_F4.1_[T8C]_T4.1], UCUCUUUGUAAAUGAUCUCUU (ssRNA) [Ib_S1_P4E.1_K4.1_C4.1_H4.1_A4.1_[T5A]_F4.1_[T8G]_T4.1] is 2.9-fold higher in Kd: 39.1 nM for the first, 113 nM for the second. The first binds more tightly here.

First: B1
Second: B2
The Kd of the first is 11-fold higher: 1470 nM for the first, 138 nM for the second. The second binds more tightly here.

Compared with B3, B4 is 19-fold higher in Kd: 23.3 nM for the first, 436 nM for the second.

First: B5
Second: B6
The Kd of the first is 90-fold higher: 1370 nM for the first, 15.2 nM for the second.

Compared with B7, B8 is 1.6-fold higher in Kd: 96.2 nM for the first, 150 nM for the second. The first binds more tightly here.

First: B9
Second: B10
The Kd of the first is 8.7-fold lower: 75.8 nM for the first, 657 nM for the second.

First: B11
Second: B12
The Kd of the first is 280-fold lower: 3.86 nM for the first, 1090 nM for the second.

Compared with B13, B14 is 3.8-fold lower in Kd: 48.5 nM for the first, 12.9 nM for the second.

First: B15
Second: B16
The Kd of the first is 8.7-fold higher: 819 nM for the first, 94.5 nM for the second. The second binds more tightly here.

Compared with B17, B18 is 63-fold higher in Kd: 0.476 nM for the first, 30.2 nM for the second. The first binds more tightly here.

Going from B19 to B20, the Kd falls from 973 nM to 11.9 nM (82-fold).

B21 and B22 are within 1.5-fold of each other in Kd: 394 nM for the first, 279 nM for the second.

Going from B23 to B24, the Kd rises from 91.4 nM to 151 nM (1.7-fold). The first binds more tightly here.

Compared with B25, B26 is 9.5-fold higher in Kd: 58.3 nM for the first, 552 nM for the second. The first binds more tightly here.

Work on B27 yielded a Kd of 1.74 nM.

Source: publication PMC9352680, “A comprehensive thermodynamic model for RNA binding by the Saccharomyces cerevisiae Pumilio protein PUF4”
